How the values were obtained:
murine T cells = assay: Restoring proliferation of murine T cells treated with MTA (CellTrace Violet, FACS); format: cell-based, mouse; conditions: 5 μM enzyme, CD8+ and CD4+ T cells
From the text: Spleens dissected from healthy 8-week-old C57BL6 mice were crushed in a 70 μm Falcon™ Cell Strainer to obtain single cells, which were further isolated using the EasySep™ Mouse T-Cell Isolation Kit (Stem Cell). Isolated T cells were brought to a concentration of 1×10^6 cells/mL in PBS and were processed according to the CellTrace™ Violet Cell Proliferation Kit protocol (Thermo Fisher), which measures proliferation as a function of dye dilution with each cell-division. The labeled cells were then re-counted and brought to 1×10^6 cells/mL of RPMI media and 1 mL/well were plated, after which anti-CD3/CD28 beads were added to activate the T cells (Dynabeads® Mouse T-Activator CD3/CD28 for T-Cell Expansion and Activation from Thermo Fisher) according to the protocol from the kit. Subsequently, three different MTA concentrations, 0 μM MTA, 125 μM MTA, or 250 μM MTA were added to the plated cells. Finally, MTAP and MTAN were added to the appropriate wells at a final concentration of 5 μM enzyme, and PBS was added to the control wells. After incubation for five days, cells were then collected and stained with anti-CD3, anti-CD4, anti-CD8, and Fixable Viability Dye eFluor™ 520 and analyzed by FACS. The antibodies used were all from Biolegend: PE anti-mouse CD3 (17A2), APC anti-mouse CD4 (GK1.5), APC/Fire™ 750 anti-mouse CD8a (53-6.7), and Brilliant Violet 421™ anti-mouse Ki-67 (16A8). […]

[1] = Kinetic stability of purified enzymes in phosphate buffer; format: physicochemical
Procedure: The kinetic stabilities of purified hs-MTAP and se-MTAN enzymes were determined by incubating the enzymes in a 100 mM phosphate buffer (pH 7.4) at 37° C. Over the course of four days, aliquots of hs-MTAP and se-MTAN were withdrawn from the incubations and assessed for their ability to degrade MTA as described in Example 5. The resulting data were processed and fitted to an exponential equation to determine the decay rate.

B16-F10 MTAP−/− tumor = assay: Immune phenotype in the B16-MTAP−/− melanoma tumor model (FACS); format: in vivo, mouse; conditions: two doses, 24 hr post dose, vs vehicle
Procedure: Lymphocyte panels observed by FACS analyses from C57/BL6 mice bearing B16-F10 MTAP^−/− tumor samples were assessed after treatment with two doses of PEG-MTAP or vehicle (analyzed 24 hr post dose).

WT B16-F10 tumors = assay: Efficacy in the B16 WT melanoma tumor model; format: in vivo, mouse; conditions: C57/BL6 mice, 50 mg/kg three times/week peri-tumoral, 2 weeks
Procedure: (§1) Two cohorts each of C57/BL6 mice were subcutaneously inoculated with either 50,000 WT B16-F10 or B16-F10 MTAP^−/− cells. When the tumors reached a mean size of 55 mm^3 the mice were treated with either vehicle (PBS) or 50 mg/kg of PEG-MTAP three times/week by peri-tumoral injection for 2 weeks. As expected from a tumor highly expressing MTAP, it was observed that PEG-MTAP treatment had no effect on the growth of WT B16-F10 tumors (FIG. 8A).

[2] = test system: B16-F10 MTAP−/− allografts; assay: Efficacy in the B16-MTAP−/− melanoma tumor model; format: in vivo, mouse; conditions: 50 mg/kg three times/week peri-tumoral, 2 weeks
From the text: As B16 is a very well characterized cell line in terms of metabolism and its interaction with host immune systems, it was hypothesized that an MTAP deletion in this strain would create a relevant model to evaluate the consequences of MTA accumulation both metabolically to the tumor and upon the host immune system. Cas9 protein (TrueCut™ Cas9 Protein v2) and synthetic single guide RNA purchased through ThermoFisher were transfected into B16-F10 WT cells using lypofectamine (Lipofectamine™ CRISPRMAX™ Cas9 Transfection Reagent). After two days of transfection, cells were plated using limited dilution method into ten 96-well plates. Plates were examined daily for single cell clones and after reaching confluency (10-14 days post transfection) clones were further expanded and analyzed for MTAP expression through Western blotting, and clones lacking MTAP expression were verified for gene disruption by cloning and sequencing.
as §1

Molecule	reversal of the MTA effect on T cell proliferation and viability (murine T cells)	half-life (T1/2) of activity ([1]; pH 7.4) [h]	percentage of CD4+ T cells (B16-F10 MTAP−/− tumor)	percentage of NK1.1+ natural killer cells (B16-F10 MTAP−/− tumor)	percentage of proliferating CD8+ Granzyme B+ T cells (B16-F10 MTAP−/− tumor)	tumor growth (WT B16-F10 tumors)	complete responses (CRs) in the treatment group ([2]; 3/7 CRs) [%]	tumor growth ([2]; C57/BL6 mice)	half-life (T1/2) of activity ([1]; 100 mM phosphate buffer, pH 7.4, 37° C.) [h]
hs-MTAP: MTAP enzyme from Homo sapiens (SEQ ID NO: 1), N-terminal His6 tag, expressed in E. coli (protein, listed as Homo sapiens, N-terminal His6 tag) MASGTTTTAVKIGIIGGTGLDDPEILEGRTEKYVDTPFGKPSDALILGKIKNVDCVLLARHGRQHTIMPSKVNYQANIWALKEEGCTHVIVTTACGSLREEIQPGDIVIIDQFIDRTTMRPQSFYDGSHSCARGVCHIPMAEPFCPKTREVLIETAKKLGLRCHSKGTMVTIEGPRFSSRAESFMFRTWGADVINMTTVPEVVLAKEAGICYASIAMATDYDCWKEHEEAVSVDRVLKTLKENANKAKSLLLTTIPQIGSTEWSETLHNLKNMAQFSVLLPRH	completely reversed	57	–	–	–	–	–	–	–
PEG-hs-MTAP: hs-MTAP with surface lysine residues reacted with Methoxyl PEG Succinimidyl Carbonate 5000 MW (conjugate, UniProt Q13126 1-283, looked up, PEG 5000, hs-MTAP with surface lysine residues reacted with Methoxyl PEG Succinimidyl Carbonate 5000 MW) S-methyl-5'-thioadenosine …: MASGTTTTAVKIGIIGGTGLDDPEILEGRTEKYVDTPFGKPSDALILGKIKNVDCVLLARHGRQHTIMPSKVNYQANIWALKEEGCTHVIVTTACGSLREEIQPGDIVIIDQFIDRTTMRPQSFYDGSHSCARGVCHIPMAEPFCPKTREVLIETAKKLGLRCHSKGTMVTIEGPRFSSRAESFMFRTWGADVINMTTVPEVVLAKEAGICYASIAMATDYDCWKEHEEAVSVDRVLKTLKENANKAKSLLLTTIPQIGSTEWSETLHNLKNMAQFSVLLPRH	–	–	large increases	large increases	large increases	no effect	43	drastically retarded tumor growth	–
se-MTAN: MTAN enzyme from Salmonella enterica (SEQ ID NO: 3), N-terminal His6 tag, expressed in E. coli (protein, listed as Salmonella enterica, N-terminal His6 tag) MKIGIIGAMEEEVTLLRDKIDNRQTITLGGCEIYTGQLNGTEVALLKSGIGKVAAALGATLLLEHCKPDVIINTGSAGGLASTLKVGDIVVSDETRYHDADVTAFGYEYGQLPGCPAGFKADDKLIAAAESCIRELNLNAVRGLIVSGDAFINGSVGLAKIRHNFPDAVAVEMEATAIAHVCHNFNVPFVVVRAISDVADQQSHLSFDEFLAVAAKQSTLMVETLVQKLAHG	completely reversed	–	–	–	–	–	–	–	56

Source: patent US11118167B2, “Enzyme-mediated depletion of adenosine and/or methylthioadenosine” (BOARD OF REGENTS, THE UNIVERSITY OF TEXAS SYSTEM, priority 2017, dated 2021)
